In publication PMC6445466 one finds Kd, koff and kon data, which are given here for one molecule.

The target of this assay is BAD16-C (residues 204-352, B. afzelii strain PGau) (Borrelia afzelii strain PGau). Description: SPR; Biacore T200, 25°C; borrelial protein immobilised by amine coupling; C1r as analyte, single-cycle kinetics, five-fold dilution series 1.6 to 1000 nM; HBS-T with 5 mM CaCl2; 1:1 kinetic fit; triplicate.

B1: human C1r, full-length enzyme (enzyme)
chain: SIPIPQKLFGEVTSPLFPKPYPNNFETTTVITVPTGYRVKLVFQQFDLEPSEGCFYDYVKISADKKSLGRFCGQLGSPLGNPPGKKEFMSQGNKMLLTFHTDFSNEENGTIMFYKGFLAYYQAVDLDECASRSKSGEEDPQPQCQHLCHNYVGGYFCSCRPGYELQEDTHSCQAECSSELYTEASGYISSLEYPRSYPPDLRCNYSIRVERGLTLHLKFLEPFDIDDHQQVHCPYDQLQIYANGKNIGEFCGKQRPPDLDTSSNAVDLLFFTDESGDSRGWKLRYTTEIIKCPQPKTLDEFTIIQNLQPQYQFRDYFIATCKQGYQLIEGNQVLHSFTAVCQDDGTWHRAMPRCKIKDCGQPRNLPNGDFRYTTTMGVNTYKARIQYYCHEPYYKMQTRAGSRESEQGVYTCTAQGIWKNEQKGEKIPRCLPVCGKPVNPVEQRQRIIGGQKAKMGNFPWQVFTNIHGRGGGALLGDRWILTAAHTLYPKEHEAQSNASLDVFLGHTNVEELMKLGNHPIRRVSVHPDYRQDESYNFEGDIALLELENSVTLGPNLLPICLPDNDTFYDLGLMGYVSGFGVMEEKIAHDLRFVRLPVANPQACENWLRGKNRMDVFSQNMFCAGHPSLKQDACQGDSGGVFAVRDPNTDRWVATGIVSWGIGCSRGYGFYTKVLNYVDWIKKEMEEED
As to B1, the Kd came out at 2.2 nM, the koff turned out to be 4.3e-05 s⁻¹ and the on-rate constant (kon) stood at 19000 M⁻¹ s⁻¹.

Usually Kd stands for the constant that tells how readily two partners part at equilibrium. For orientation: koff means the rate constant with which the complex falls apart. The kon is a measure of how fast the partners come together. Higher therefore signals faster complex formation.
